Experiment: yeast display, Sf9 membrane polyspecificity reagent, FACS + sequencing; frameworks hold sequencing errors
In short: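 After 36–48 hours of galactose induction, yeast (Saccharomyces cerevisiae BJ5465) displaying a synthetic nanobody library were stained at 4 °C for 1 hour with 10% biotinylated, detergent-solubilized Sf9 membrane reagent. Streptavidin microbeads enriched the stained cells before FACS sorting into low and high (top ~1%) gates on anti-HA and streptavidin fluorescence. Each clone's polyreactivity label reflects its gate of origin.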

Sequence | polyreactivity (PSR sort gate)
QVQLVESGGGLVQAGGSLRLSCAASGRTFRRYVMGWYRQAPGKERELGAAITGSGGSTYYADSVKGRFTISRDNAKNTVYLQMNSLKPEDTAVYYCAADGICFYRSYGYDYWGQGTQVNVSS | high polyreactivity
QVQLVESGGGLVQAGGSLRLSCAASGRIFGNYAMGWYRQAPGKERELVAAITSGARTYYADSVKGRFTISRDNAKNTVYLQMNSLKPEDTAVYYCAAYHKSYSYRYDYWGQGTQVTVSS | high polyreactivity
QVQLVESGGGLVQAGGSLRLSCAASGRTFYRYVMGWYRQAPGKERALVAAITWSGGSTYYADSVKGRFTISRDNAKNTVYLQMNSLKPEDTAVYYCAKGLYDASRRYYYWGQGTQVTVSS | high polyreactivity
QVQLVESGVGLVQAGGRLRLSCAASGLIFNDNMGWYRQSPGKEREVVAAISSSGGSTSYADSVKGRFTISRDNAKNTVYLQMNSLKPEDTAVYYCAADSYPAYLGFVGFDYWGQGTQVTVSS | low polyreactivity
QVQLVESGGGLVQAGGSLRLSCAASGYIWCYAMGWDRQAPGKEWELVAAISWGGGSTYYADSVKGRFTISRDNAKNTVYLQMNSLKREDTAVYYCAAVDAVGPTSHAMYYWGLGTQVTVSS | low polyreactivity
QVQLVESGGGLVQAGGSLRLSCAASGRTFWSYAMGWYRPAPGKERELVAAINSSGDSTNYADSVKGRFTISRDNAKNTVYLQMNWLKPEDTAVYYCAADGGLLAGSDATVRMDYWGQGTQVTVSS | low polyreactivity
QVQLVESGGGLVQAGGSLRLSCAASGRIFGVYAMGCYRQAPGKDRELVAAISSTGGSTYYADSVKGRFTISRDNAKNTVYLQMNSMKPEDTAVYYCEYDYWGQGTQVTVSS | low polyreactivity
QVQLVESGGGLVQAGGSLRLSCAASGSTFDIYVMGWYRQAPGKEREFVAAITTTTGRTNYADSVKGRFTISRDNAKNTVYLQMNSLKPEDTAVYYCAAYVTWGKLWYGYWGQGTQVTVSS | high polyreactivity
QVQLVESGGGLVQAGGSLRLSCSASGRTFRGNAMGWSRHAPGKEREMVAAITSSGGSTYYADSVKGRFTISRDNAKNNVHLKMNSLKPEDTAVYYCAKTYVVPQYDYDYWGQGTQVTVSS | low polyreactivity
QVQLVESGGGLVQAGGSLRLSCAASGSILLYYSMGWYIQAPGKERELVARISITRDSTYYADSVKGRFTISRDNAKNTVYLQMYSLNPEDTAVYFCAADPVLHYYPSYYTGALDYYWGQGTQVTVSS | low polyreactivity
QVQLVESGGGLVQAGGSLRLSCAASGFTFFSNAMGWYRQAPGKERELVASISASGSGTYYADSVKGRFTISRDNAKNTVYLQMNSLKPEDTAVYYCAAQYRVNARSGVYRGYRYNYWGQGTQVTVSS | high polyreactivity
QVQLVESGGGLVQAGGSLRLSCAACGRILWTYAMGLYRQAPGKERELVADISRTGSTNYADSVKGRFTISRDNAKNTVYLQMNSLKPEDTAVYYCAADRWAHTHRLGYWGQGTQVTVSS | low polyreactivity
QVQLVESGGGLVQAGGSLRLSCAASGAIFESNAMGWYRQAPGKEREFVAAIDQNDGSSNYADSVKGRFTISRDNAKNTVYLQMNSLKPEDSAVYYCAAEVPGYWYLDYEYWGHGTQVTVSS | low polyreactivity
QVQLVESGGGLVQAGGSLRLSCAASGSTFYFYAMGWYRQAPGKERELVAAITYSGDRTRYADSVKGRFTISRDNAKNTVYLQMNSLKPEDTAVYYCAARYVGARNAYRMGYWGQGTQVTVSS | high polyreactivity
QVQLVESGGGLFQAGGSLRLSCAASGRTFSHNGMGWYRQAPGKERELVATINRGGNTYYADSVKGRFTISRDNAKNTVYLQMNSLKPEDTAVYYCAARRSFLFDEGNYWGQGTQVTVSS | low polyreactivity
QDQLVETGGGLVQAGGSLRLSCAASRNTFAQKAMGRSRQAPGKERELVAAITDGTSTNYADSVKGRFTISRDNAKNTVYLQMNSLKPEDKAVYYCAAESLYTLFYWGYDYWGQGTQVTVSS | low polyreactivity
QVQLVESGGGVVQARGSLRLSCAASGSPFWYHDMGWYRQAPGKERELVASISWSGGDTYYADSVKGRFTISRDNAKNTVYLQMNSLKTVDTAVYYCAAATLVSFWLDYWGEGTQVTVSS | low polyreactivity
QVQLVESGGGLVQAGGSLRLSCAASGFTFGSNAMGWYRQAPGKERELVADITVSGGSTYYADSVKGRFTISRDNAKNTVYLQMNSLKPEDTAVYYCAKDPRTYLDYDYWGQGTQVNVSS | low polyreactivity
QVQLVESGGGLVQAGGSLRLSCAASGRTFSYYTMGWSRQAPGKERELVAAISWSGGNTYYADSVKGRFTISRDNAKNTVYLQMNSLKPEDTAVYYCAARSVYGSYSGYDYWGQGTQVTVSS | high polyreactivity
QVQLVESGGGLVQAGGSLRLSCAASGSIFGGYTMGWYRPAPGKERELVAAITKNGGRTYYADSVKGRFTISRDTAKPTVYLQMNSLKPEDTAVYYCAAATSPSWYTWVTYDYWGQGTQVTVSS | high polyreactivity
QVQRVESGGGLVQAGGSLRLSCAASGSIFGVYTRGWYRQAPGKESELVAAITSAGSTYADSVKGRFTISRDNAKNTVYLQMNSLKPEDTAVYYCAAGFHKRVTPEILYDYWGQGTQVTVSS | low polyreactivity
QVQLVESGGGLVQAGGSLRLSCAASGFTFAYYAMGWYRQAPGKEREFVAAINKGGGSTNYADSVKGRFTISRDNAKNTVYLQMNSLKPEDTAVYYCNADYFVWYIGRVFSRYGYWGQGTQVTVSS | low polyreactivity

Sequence | polyreactivity (PSR sort gate)
QVQLVESGGGLVQAGGSLRLSCAASGSIFYPYAMGWYRQAPGKERELVAAISSGGTTYYADSVKGRFTISRDNAKNTVYLQMNSLKPEDTAVYYCAAGFYLRAVWMDYWGQGTQVTVSS | high polyreactivity
QVQIVESGGGLVQAGGSLRLSCAASGSIFSVYAMGWYRQAPGKERELVAAIRYGDTSTYYADSVKGRFTISRDNAKNTVYFQMNSLKPEDTAVYYCAADLYAYEREYWGQGTQVTVSS | low polyreactivity
QVQLQESGGGLVQAGGSLLSCAASGTISWVDEMGWYRQAPGNERELVAGIAGGGNTNYADSVKGRFTISRDNAKNTVYLQMNSLDTAVYYCAVVGFGGGTHIYWGQGTQVTVSS | high polyreactivity
QVQLVESGGGLVQAGGSLRLSCAASGSIQVYYAMGWYRQAPGKERELVAAISSGGSTNYADSVKGRFTISRDNAKNTVYLQMNSLKPEDTAVYYCAKESGWVGAIHYDYWGQGTQVTVSS | low polyreactivity
QVQHVESGGGLVQAGGSLRLSCAASGRIFGTYAMGWYRQAPGKERELVAAISWSGGRTYYADSVKGRFTISRDNAKNTVYLQMNSLKPEHTAVYYCAARGVPRDGRHHYRYDYWGQGSQVTVSS | high polyreactivity
QVQLVDSGGGLVQAGGSLRLSCAASGISFGVYAMGWYRQAPGKERELVAAISRRGASTYYADSVKGRFTISRDNAKTTVYLQMNILNPEDTAVYYCPAYLARRQYDYWGQGTKVTVSS | high polyreactivity
QVQLVESGGGLVQAGGSLRLSCAASGSTFTRYAMGWYRQAPGKERELVAAINWSGTSTYYADSVKGRFTISRDNAKNTVYLQMNSLKPEDTAVYYCNKGYLVRPGDYWGQGTQVTVSS | high polyreactivity
QVQLVESGGGLVQAGGSLRLSCAASGSTFGRNALGWYRQAPGKERELVASISWGGGSTYYADSVKGRFTISRDNSKNTVYLQMNSLKTEDTAVYYCNARRFLWSQLSGSFSYDYWGQGTQVTVSS | high polyreactivity
QVQLVDSGGGLVQAGGSLRLSCAASGRIFHCYAMGWYRQAPGKERELVAAIRASGGRTYYADSVKGRFTISRDNAKNTVYLQMNSLKPEDTAVYYCAADSVKYGGDYWGQGTQVTVSS | high polyreactivity
QVQLVESVGGLVQAGGSLRLSCAASGSTFTYNDLGWYRQAPGKERELVARITFSSGRTYYADSVKGRFTISRDNAKNTVYLQMNSLTPEDTAVYDCARQWYWPPGYYIGQGYEYWGQGTQVTVSS | low polyreactivity
QVQLVESGGGLVQAGGSLRLSCAASGRTFYAYAMGWYRQAPGKERELVAAISSGGSTYYADSVKGRFTISRDNAKNTVYLQMNSLKPEDTAVYYCNAGYYQWPFSGYDYWGQGTQVTVSS | low polyreactivity
QVQLVESGGGFVQAGGSLRLSCAASGSTFAYYTMGWYRQAPGKERELVAASYGAGGSTYYADSVKGRFTISRDNAKNTVYLQRNSLIPEDTAVYYCNVVVSVHISVSQYDYWGQGTQVTVSS | high polyreactivity
QVQIVESGGGLVQAGGTLRLSCAASGFIFSSYGMGWYRKAPGKERELVADISGGGSTNYADSVKGRFTISRDNAKNSVYLQMNSLKPEETAVYYCNAQLIRSAAYDYWGQGTQVSVSS | low polyreactivity
QVQLVESGGGLVQAGGSLRLSCASSGSTIYPNAMGWYRQAPGKERELVARISRTGGSTYADSVKGRFTISRDNAKNTVYLQMNSLKPEDTAVYYCARSYASFSWLRTKEPYEYWGQGTQVTVSS | low polyreactivity
QVQLVESGGGLVQAGGSLRLSCAASGLTFGAYAMGWYRQAPRKEREFVAAITYSGGSSNYADSVKGRFTISRDNAKNTVYLQMNSLKPEDTAVYYCNAGYYSPWAFYPYDYWGQGTQVTVSS | high polyreactivity
QVQLVESGGGLVQAGGSLRLSCAASGRTFSKYAMGWYRQAPGKERELVAAIRWSGGSTYYADSVKGRFTISRDNAKNTVYLQMNSLKPEDTAVYYCAKRSRGLKFDYWGQGTQVTVSS | high polyreactivity
QVQLVESGGGLVQAGGSLRLSCAASGSTNSQYAMGWYRQAPGKERELVAAITTSDGSTNYADSVKGRFTISRDNAKNTVYLQMNSLKPEDTAVYYCNTEYFYFSFGYWGQGTQVTVSS | low polyreactivity
QVQLVESGGGLVQAGGSLRLSCAASGLTLVTIGMGWYSQAPAKERELVAAIDSTGGRTYYADSVKGRFTISRDNAKKTVYLQMTSLKPEDTAVSYCNRRWYARAAYWGQGTQVTVSS | high polyreactivity
QVQLVESGGGLVQAGGSLRLSCAASGSTFYTNAMGWYRQAPGQERELVAAISASVGSTYYADSVKGRFTISRDYAKNSVYLQMNSLKPEDTAVYYCAADVWASRRYDYWGQGTQVTVSS | low polyreactivity
QVQLVESGGGLVQAGGSLRLSCAASGSIFTFNAMGWYRQAPGKEREFVAAITRSGGRTYYADSVKGRFTISRDNAKNTVYLQMNSLKPEDTAVYYCAARPRGKYDYWGQGTQVTVSS | high polyreactivity
QVQLVESGGGLVQAGGSLRLSCAASGSIFTSYAMGWYRQAPGKERELVAGIDWSGGGTYYADSVKGRFTISRDNAKNTVYLQMNSLKPEDTAVYYCNADGPYTRYGPVDYWGQGTQVTVSS | low polyreactivity
